{"source": "patent US11033507B2", "about": "“Method of synthesis of silica vesicles and use thereof” (THE UNIVERSITY OF QUEENSLAND, priority 2013, dated 2021)", "molecules": {"B1": {"name": "free RNase A: ribonuclease A, model therapeutical protein (protein, UniProt P61823 27-150, looked up)", "Ribonuclease pancreatic": "KETAAAKFERQHMDSSTSAASSSNYCNQMMKSRNLTKDRCKPVNTFVHESLADVQAVCSQKNVACKNGQTNCYQSYSTMSITDCRETGSSKYPNCAYKTTQANKHIIVACEGNPYVPVHFDASV"}}, "key": {"HCT116 cells": {"tested_on": "HCT116 cells", "test": "Cell viability after acid and heat treatment, HCT116", "format": "cell-based", "settings": "24 to 72 h; samples acid and heat treated"}, "SCC25 cells": {"tested_on": "SCC25 cells", "test": "MTT cell toxicity, SCC25", "format": "cell-based, human", "method": "SCC25 cells were seeded in a 96-well plate at a density of 2×10^4 cells per well and cultured in 5% CO2 at 37° C. for 24 h. Then, free RNase A, SVs, RNase A loaded SVs and corresponding denatured samples were added to the cells in DMEM medium at an RNase A dosage of 4-16 μg/ml, and the cells were incubated in 5% CO2 at 37° C. for 24 and 72 h. Subsequently, MTT reagent (10 μl/well volume from 5 mg/mI solution in PBS) was added to each well, shaken for 10 seconds and then incubated at 37° C. for 4 h. The precipitants were collected following centrifugation for the above cell toxicity experiments after the removal of the supernatant. Then DMSO (100 μl) was added to each well to dissolve the formazan crystals and the optical density (OD) was recorded at 570 nm using a microplate reader (SpectraMax M5, Bio-Strategy, Ltd). Cells incubated in the absence of SVs and RNase A were used as the control. All the experiments were performed in triplicate for each group.\nAnother series of control groups was prepared after heat and acid denaturation of RNase A, including both free RNase A and RNase A loaded SVs. In the denaturation process, 50 μl of HCl (0.01M, pH 2.0) solution was added in to 1 mg of free RNase A or 6-9 mg of SVs (loaded with 1 mg RNase A). The mixtures were incubated at 65° C. for 40 min, cooled and centrifuged. NaOH (0.01M) solution was added dropwise into the mixtures until the pH reached ˜7, indicated by precise pH paper and used as a denatured RNase A group in the present experiment.\nThe stability and activity of RNase A loaded in hydrophobic modified SV was further investigated with acid and heat treatment. In a treatment procedure, 50 μl 0.01 M HCl (pH 2) was added to ˜1 mg RNase A loaded in SV. The mixture was kept in 65° C. for 40 min, then neutralized with 0.01 M NaOH solution (pH 12) until the pH reached 7. The final RNase A concentration was then diluted to 0.5 mg/ml. Free RNase A was also treated accordingly as a control group. […]"}, "RNase A": {"molecular_target": "RNase A (Bos taurus, UniProt P61823)", "test": "Thermal unfolding of RNase A by differential scanning calorimetry", "format": "physicochemical", "settings": "10 mM PBS, RNase A 0.5 mg/ml, heating rate 60° C./h", "method": "The thermal unfolding of RNase A was measured by differential scanning calorimetry (DSC) in the range of 10−130° C. The DSC was carried out using a VP DSC microcalorimeter (MicroCal Company, USA) with a heating rate of 60° C./h. In a typical procedure, the RNase A/SV was suspended in 10 mM PBS solution with the RNase A concentration of 0.5 mg/ml. A reference suspension was also prepared using only SV the same concentration. The reference and sample suspension were injected in the corresponding cells for DSC measurements. The DSC curve of free RNase A was also obtained."}}, "data": [{"molecule": "B1", "values": [{"measurement": "cellular toxicity / inhibition of HCT116 cells", "setting": "HCT116 cells", "result": "no inhibition"}, {"measurement": "cellular toxicity / inhibition of SCC25 cells", "setting": "SCC25 cells; 24 to 72 h, samples acid and heat treated", "result": "no inhibition"}, {"measurement": "cytotoxicity to SCC25 cells", "setting": "SCC25 cells; free protein after denaturation", "result": "no cytotoxicity"}, {"measurement": "cytotoxicity to SCC25 cells", "setting": "SCC25 cells; free protein, not denatured", "result": "no cytotoxicity"}, {"measurement": "midpoint temperature for the RNase A thermal unfolding (Tm)", "setting": "RNase A", "result": 63.6, "unit": "°C"}]}]}
